A short description of this data set: soluble on expression in E. coli; label from the status in PepcDB or PDB records.
On to “MGSDKIHHHHHHMYTDADRSREVVPEKDGHDKKWRDEFGRDYGRIIHSASFRRQQGKTQVFPSRESDFFRNRLTHSLEVAQIAQGIAERINYDYDKDLGGKIDPRLCATAGLVHDIGHPPFGHNGESALDKAMQRYGGFEGNAQTLRILTRLEKKLRYAEPLAGDDRAGLNLCHRTIAATLKYDNEIPAIRKAADGFVKGYYGSEKIIVDRVKASVLNGYVLGAEEKFCTIECSIMDLADDIAYSVYDLEDCFKVGFLSPAEMLASDDALLSAVAKRASKPMKRTVTINEIQAVFMEIFSEIIEQPAEDADSPLDGIVIEDDIAQQAKRDESLLTFAEAYRTSKVMSEDGYKRTEFSSELVHQFISGVELKAHKECPSLSQIYLPEKLMLRKEVLKQYTFVAAIYAPRVKLGEYRGYDLVTDIFKALMGDRGDLLMPADVRGRIRKAPNVSVKAREVCDFVAGMTDRYAMEFWARLNSDAAESMFKPI”, for which the “soluble on expression in E. coli” value was “not soluble”.
For “MGSDKIHHHHHHMYTMFYTSKTALSANQSKLDIISNNIANSDSTGYKKINMEYSDLVDEVLNRPSYPTNGNDISTGTGAKATAPMRNYEQGALAPTDSKSNLAIDGEGFFRVIRKDGTYAYTRNGGFNVDALGKIVDDNGNILDVQFDAGYNYNNTNIDSTNLTVSRNGELFVDNKKIGKINLYQPIGTQNFISEGDSLFVATDAAQIKQVEKVDIVQGYRERSNVSLQEEFVDLIATQRAFQMNSKGIKTADEMWQIANNLRAK”, the “soluble on expression in E. coli” value is on record as “not soluble”.
Take “MGSDKIHHHHHHMYTQDNVISNNKRLSSFQLSKMHTFEVAARHCSFSLAAEELSMTPSAISHRINALESELGILLFKRSHRKIELTKEGERIYIAVKSSFSSLNQEILEVKSNEISGELTVYSRPSFAQCWLVPRIAGFQKQYPAISLNILTGNENINFHGHGIDVAIYFDEKQPSKLYCQDIMTETIVPVCSPEYAEEFDLIGKINNLSQCTLLHDNQAWGYDSNTDEWALWANNFNINCLASSASIRFDRSDLAVIAAMNNAGVAMGRESFISNQIKRGELIKPFIDKKILCPQRYYVATLPNNKNTKIELFIEWLKNEVQNEGGESIV”: the “soluble on expression in E. coli” value is “not soluble”.
With “MGSDKIHHHHHHMYTREELMEIVSERVKKCTACPLHLNRTNVVVGEGNLDTRIVFVGEGPGEEEDKTGRPFVGRAGMLLTELLRESGIRREDVYICNVVKCRPPNNRTPTPEEQAACGHFLLAQIEIINPDVIVALGATALSFFVDGKKVSITKVRGNPIDWLGGKKVIPTFHPSYLLRNRSNELRRIVLEDIEKAKSFIKKEG”, the “soluble on expression in E. coli” value was “soluble”.
As to “MGSDKIHHHHHHNVYSLPANGGRLIGELQTHVVEKGDYFKTIADKYNIGILELMETNPGVDPFLPTPGTQLVIPTQMLLPDVPRKGIVINLPELRLYYFPKNGREVHVFPVGIGRIGRETPEMTTKIKARIPNPSWTPPASLRAEHLRERGEVLPPVVPAGPDNPLGKYAMQLSYGDGSYLIHGTNKDFGIGMRVSAGCIRLNPDDIEWLFHQAKYGDSVRVINQTVKIATEPDGRQIIEVHSPLSKTEDQPREKVISLSSKVVKFISQESVDNTKANDALLTQNGIPMVISHPPLTAAQDLEITP”, the “soluble on expression in E. coli” value is listed as “not soluble”.
The value for “MGSDKIHHHHHHNYENINSNPYEAPDLSADGYALGSAMNNLAGCVVSPDVNTAQFTDCLLGGPLGGYFADSNAGFTETISNFNPKDDWSRVFLKSDKIIPTLYSNLTQVKLVSQNTNDPVPYAIAQVIKVAAMHRVTDAFGPIPYSQIGANGEIATPYDSQEVTYNTFFDELNAAIATLNENSNEQLVPTADYIYKGDVKKWIRFANSLKLRLAIRIAYANPVKAQQMAEEAVNPANGGVIESNADNATWNYFETSQNPIYVATRYNQVQTSDHGGVPCLTGGDTHAAADIICYMNGYKDNRREKFFTKSEWAGQDYVGMRRGIVIPELKTTGHKYSGVNIAPTSPLYWMNAAEVAFLRAEGQAVFNFSMGGTAESFYNQGIRLSFEQWGADGVEDYLKDDVNKPTAYTDPAGTNTYQNALSNITIKWNDSADKEEKQERIIVQKWIANWQLGNEAWADFRRTGYPKLIPVKENKSGGVVDSEKGARRMPYPLDEFVSNKANVEYAIANYLHGADNMATDVWWASKK” was “not soluble”.
In the case of “MGSDKIHHHHHHPSLTCVMEGKDIEDWSCCPTPWTSFQSSCYFISTGMQSWTKSQKNCSVMGADLVVINTREEQDFIIQNLKRNSSYFLGLSDPGGRRHWQWVDQTPYNENVTFWHSGEPNNLDERCAIINFRSSEEWGWNDIHCHVPQKSICKMKKIYI” it was “not soluble”.
The value for “MGSDKIHHHHHHQTIDETAIIARAQAIATRINEFLATRERNLLAKILALGGVQQAEIFEIQVKARLHPADVERVLAVLNHPAITVTKTSERTQYDTYFIFANGERIRIREDHRTDPGARPQPKYTLTLMAEARRFDHPKAMMLSRARYTAPADHTVRFYREYFQPDRIEELEKQRRRWRILYRDHDFAINLDTLIGQADRGPFLEIKSRTWSRRDAERRAELISELLELIGISDDALVLQEYVELVA” was “not soluble”; that for “MGSDKIHHHHHHRGDKPVVWNHQDRRFEVIQQKKQRQRLDSYRRIVIDTTAPVTIRQGDTRQVTLHNFSSANNRLRARVSQGTLTVTGGSTTMNYVLGFGSDGGGINFSSNGDKRGVVITVPKTQRLDSIISKREGGELSLKKMTVKQISVKSTDDVSFNDVRVTKTLAVDTTAGDISGKQVKADRVDLTAEEGDVSLTQSHFKAVNNRVISGDGDVRLATTQLGGGHVVASDGDIQLHDNRLMGTLKATATDGDISARIAPAAGAKVTTTDSDDEIHVVGHSRSSGYWLRRAASAQYRLSTDDGDITVTQ” was “not soluble”.
Take “MGSDKIHHHHHHRTKDQYYELRDFALGTSVRIVVSSQKINPRTIAEAILEDMKRITYKFSFTDERSVVKKINDHPNEWVEVDEETYSLIKAACAFAELTDGAFDPTVGRLLELWGFTGNYENLRVPSREEIEEALKHTGYKNVLFDDKNMRVMVKNGVKIDLGGIAKGYALDRARQIALSFDENATGFVEAGGDVRIIGPKFGKYPWVIGVKDPRGDDVIDYIYLKSGAVATSGDYERYFVVDGVRYHHILDPSTGYPARGVWSVTIIAEDATTADALSTAGFVMAGKDWRKVVLDFPNMGAHLLIVLEGGAIERSETFKLFERE”: the “soluble on expression in E. coli” value was “soluble”.
Consider “MGSDKIHHHHHHSAGPIHPASLDIDNGNGTNVFIAYEWVDYDYKTYTENGLALDEAWGHLYMAIVAVAGVHVTGYVHNDIDRGNFVINSDGILKLTDFGMSSSKDASCSGKALFFPPETFQPGFFQRKRDASALARVQARDLFQVGNTMLEAILGKEGEIYQAERYGLKLAMVKKKPDFKQDLKVVIQDEKKFRKSFGKIGTKKIEDKLCVDPSRQAEVVKNLARWGLQNSLSL”, for which the “soluble on expression in E. coli” value is on record as “not soluble”.
On to “MGSDKIHHHHHHSCLDDDDSSSDSLVISTINLISPDSKDFYFTLDDGKTMFPSNGNGWISDKNKDGQRAFVIFKELEEPVKGYDYNIQVREIKEILTKEIVTMGEGENTEEKIGDDKINSTYMWITQDKKYLTIEFQYYGTHSEDKKHFLNLVINNKEAEPAADDANDEYIDLEFRHNDEGDTADRLGEGYISFKLDKIQDQMKGKKGLRIRVKTLYNGEKFYEVKFPSSN”, for which the “soluble on expression in E. coli” value is “not soluble”.
The value for “MGSDKIHHHHHHSKATGRGSGGMIGGLVASKVDPDIMSNLINNRPTVLVTGTNGKSTTTRMLAAAMRSTYTVATNEGGDNMDAGIISALLAGRNASHVVLEVDELHVPAAIERLKPDALVLLNLSRDQLDRVGEINKIERVLRDAVRSRPEMTVIANCDDVLVTSVAFDAENVIWVGAGTGWQGESATCPRTESRILHDGRHWSAEKTLLDGRTFARPTPSWEVDGDTIHSPSGDLTLDLNLPGQANRGNAAQAIAASTVFNVPVSSALPAVNSVNNVAGRYSTITVGEHKVHLLLAKNPAGWQEALSMVDRTADGLVIVVNGQVADGEDLSWLWDVRFEDFENLSVKASGERGTDLAVRLTYAEIDHELISNPVDAIAACPPGRIEVLANYTAFRDLKKALEKGTEQ” was “not soluble”; that for “MGSDKIHHHHHHSLSGRAQTEKPSALVKVGDYRASTDFLNLSAYYQTIRPVTVKVAYVSTYKTQHTIMQKLTLPAGLTVAGNLTTTKHGSYLVPSLQLYLARLSYPALQNSAKANYTLDPGTSAYSPQATISDTTKLRAFKRVAAPDYMPGYSHGDLYIGGAKAALSPVEPTTKSIRITPDGYVEVLKYDTKANAGLGFYQKPVSLAKIVKTRFHDPNRTLYLNHPLASVKTKAITQNGQTRYRLTLKNLHTPQHIAGDPETGTAGTFDSLYSIGGTTYYTFIGYDGVSN” was “not soluble”; that for “MGSDKIHHHHHHVAISIAGGVRPGKVIEIERRLYKQLIVGKHKANAMPDELSAELEESANKLDIERKALKMRLEKQAKEKSVYVEVSALLTHTVNNAIEHQLAHPQMILEASAISENQILLLDLLLHPDLNINRLRPIIESINWLSRDLINLINSPASRHRRPKHGDVQVTDIKLVLNYIGIEHLRLLIPYFCLRNWLPSGNANLLWITRKLWRYSMVSAIAAQTLAELHNEEPGLAYSCALMYQFSTSIILSQSGRIFDNTWGTWLREASHSREKQVYDAIMATDFPAEEVLGQVLLHSHRLNWQLLSLLKFDDSPITQVLKELDHDYHFTELSADAAIVAKASCYAKVLLLEEQQQIDPQEKRIMFDYYQFSAQELIRLKGQNFRKLDLL” was “not soluble”.
The value for “MGSDKIHHHHHHVDGSTMIARNDDTFLPLTPQRFYVHPAEKNQPKRTWVSNQNGFTAPIPSDGYRYLATPNVEVDKEGVYAESGFNEKNVAMSATESVYGNPAALAIDPLVQNGLAEDSLQTMVLPYINSARDGVRYLGQLIKQYGSPEGNGVLFSDHDEVWYMEIVTGHHWVAQRIPDDAYAITANQVAIQQVSFDDPDNFMFSDGIQDFVTENHLNPDQAGWNFRHIFGTDTEKDRHYNTPRVWFGQRYLNPEIEQDPQSSDLPFICRTSHKISVEDVEYILSSHYNETKYDPFGQGAEADRLKFRPISMNRTQNSHVLQLRNDVPADRSAIFWLCFGVPAFSPYVPFFANVTDTDPTYSDTPVRLDDQSAYWMYRKLSMIVESHYSHFIEQDTDYLTATKQQLRTHVAKTLADAAALTGDELTAYLTAQNHQIVAAMRQSTTQFTNELIEKGLTLSKLTFNMDKNL” was “not soluble”.
“MGSDKIHHHHHHVDLMLKSVISYFLPNYCLVCEREIDPNDYLCKDCLTSIRGPIMAPVELLNIDSAHSYWKYESPMKELIRAYKFGDRPGVARLFAKIVFEMIDVFAPSTDVIVPVPTSLQAFIRRGFDTNLRILRHLARTIDIKIDNVLSISGKTVPQSTLKMQDRIDNVRDKFFLRKKPRSTSVILFDDVVTSGATASQCARVLREGGVKEITLLAIASAKK”: the “soluble on expression in E. coli” value is “not soluble”.
In the case of “MGSDKIHHHHHHVEQTQTRVYQYKFVNSISNIDSLIWNIFFGSSHPFTRHEYLSALEMSRCVSTETGWTPMHLIVMDGDNIIALMPLYLKSHSWGEYVFDWAWAEAYERHNIGYYPKLVGSIPFTPTTGRRIGIDPRLPKHDQQPLIDGIQTYLSQTVIKQGWSSWHCLFTNTEQHLQFAQAGVMERVGCQFHWHNQNYADFNDFLSTLTSRKRKNITKERISARQQLQFRFIDGDKASAQQWQNFVRCYQNTYLKRSGHKGYLSAAFFEQIAATMGSMIRLLLIENSDAQLVASALYFVSDTHLYGRYWGALTECDYVHFEACYYQGIEYAIANQLLVFDAGAQGEHKVARGFRPVKTTSSHFVAHEGFNDAIGAFCQQEQAHIDIYIQQMCEQLPYKSIDNT” it was “not soluble”.

Values taken from the DeepSol protein solubility set.
